In paper PMC10627809, “Histones with an unconventional DNA-binding mode in vitro are major chromatin constituents in the bacterium Bdellovibrio bacteriovorus” (Nature Microbiology, 2023):

Experiments:
[1] = target: the molecule itself; test: crystal structure; apo Bd0055; hanging drop, 3.2 M (NH4)2SO4, 100 mM BICINE pH 9; 1.8 Å
Bd0055 = target: T1, Bd0055 (UniProt Q6MRM1 1-64); test: X-ray crystallography; 1 dimer per 2.5 bp; straight DNA; asymmetric unit has one dimer with 2 nt + 3 nt; FP/FRET: 10 nM DNA, 10 mM NaCl, 1 mM EDTA, 50 mM HEPES pH 6, r.t.; EMSA: 1 µM DNA, 10 mM NaCl, 1 mM EDTA, 50 mM HEPES pH 7.5, r.t., 10% native PAGE 0.2x TBE; settings: protein: recombinant; chain copies: 2; blunt
T1 sequence: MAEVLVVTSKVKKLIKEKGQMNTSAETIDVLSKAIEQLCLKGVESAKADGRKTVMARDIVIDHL

Binder | binding result [1] | binding result (Bd0055)
Bd0055, B. bacteriovorus histone (natural protein, Bdellovibrio bacteriovorus HD100, UniProt Q6MRM1 1-64, looked up, Bd0055, singlet histone-fold protein of Bdellovibrio bacteriovorus HD100; open reading frame codon optimized for E. coli, cloned into a pET vector; No tag is named; purified by cation exchange, heparin and size exclusion; Histone-fold homodimer in both crystal structures; also called wild type Bd0055; bacterial histone Bd0055; source: E. coli, purified (SP HP, Heparin HP, S75)) MAEVLVVTSKVKKLIKEKGQMNTSAETIDVLSKAIEQLCLKGVESAKADGRKTVMARDIVIDHL | binds | –
35 bp crystallization DNA (dsDNA) DNA 1: TCTTGCACTAAGAGCTACTGGAGTGCGTCAGATGT DNA 2: ACATCTGACGCACTCCAGTAGCTCTTAGTGCAAGA | – | binds
